The target in this assay is T1, OsSPX4^1–321 (rice, UniProt Q10B79 1-320).
T1 chain: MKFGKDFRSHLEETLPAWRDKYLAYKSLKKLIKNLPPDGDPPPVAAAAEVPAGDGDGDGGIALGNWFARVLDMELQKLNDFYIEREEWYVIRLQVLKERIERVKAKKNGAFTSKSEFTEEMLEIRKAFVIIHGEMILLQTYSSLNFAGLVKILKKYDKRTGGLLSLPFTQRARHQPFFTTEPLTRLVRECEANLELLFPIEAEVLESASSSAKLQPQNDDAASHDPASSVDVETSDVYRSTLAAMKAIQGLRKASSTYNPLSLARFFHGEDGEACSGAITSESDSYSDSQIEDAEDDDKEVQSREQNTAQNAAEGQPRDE
Nature of the assay: ITC; 5PP-InsP5 (InsP7) 100 uM. For orientation: ITC needs no label: the signal is the heat of the interaction.

B1: full-length OsPHR2 (OsPHR2^1-426, wild type) (natural protein)
chain: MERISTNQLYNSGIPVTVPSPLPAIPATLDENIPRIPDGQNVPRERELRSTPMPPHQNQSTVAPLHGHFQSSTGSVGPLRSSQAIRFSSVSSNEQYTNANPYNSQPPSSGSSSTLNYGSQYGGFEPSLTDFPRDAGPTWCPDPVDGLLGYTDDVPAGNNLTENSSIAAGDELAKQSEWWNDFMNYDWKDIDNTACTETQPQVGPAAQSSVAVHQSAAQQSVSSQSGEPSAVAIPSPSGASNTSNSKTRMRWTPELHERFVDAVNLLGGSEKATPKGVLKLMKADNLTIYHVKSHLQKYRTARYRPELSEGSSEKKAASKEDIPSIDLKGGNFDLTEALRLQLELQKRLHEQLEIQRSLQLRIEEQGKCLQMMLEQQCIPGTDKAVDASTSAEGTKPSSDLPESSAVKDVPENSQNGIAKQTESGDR
The term Kd denotes a measure of binding affinity in units of concentration. A higher Kd goes with a looser complex. As for B1, binding was put at a Kd of 3.05 µM.

Source of the values: publication PMC7810988 (2019).
